Experimental findings from US20240239876A1 (GRIFOLS DIAGNOSTIC SOLUTIONS, published 2024) are described below.

Assay [1] addresses T1, HIV-1 p24 protein (HIV-1, UniProt P03349 135-365).
T1 construct: also called HIV-1 p24 antigen; HIV-p24
Briefly: BLI, antibody captured on anti-mouse Fc biosensors, 1:1 model.

Assay [2] addresses T1, HIV-1 p24 protein. Briefly: indirect ELISA on HIV-1 p24, OD 405 nm, antibody titrated 1:10 from 2 µg/mL (no unit beside the EC50; taken from the x axis, p24 Antibody [ng/mL]).

B1: anti-HIV-1 antibody #B (antibody, V domains shown)
VH: EVQLVESGGGLVKPGGSLKLSCAASGFAFSSYDMSWVRQTPDKRLEWVAYITSGVGNLNYLDTVKGRFTISRDNAKNTLYLQMSSLRSEDTAMYFCLRPPSYFGSSYDAMDYWGRGTSVTVSS
VL: DIVLTQSPATLSVTPGDSVSLSCRASQSISDNLHWYRQKSHESPRLLIKYSSQSISGIPSRFSGSGSGTDFTLSINSVETEDFGMYFCQQSNSWPFTFGSGTNLELKR
notes: recombinant, expressed in CHO cells; also called mAb B
One may read the Kd as a measure of binding affinity in units of concentration. As usually defined, the koff is the rate constant with which the complex falls apart. Read a low koff as a long-lived complex. For orientation: kon means a measure of how fast the partners come together. The low end stands for slower complex formation, the high end for faster complex formation. A word on the EC50: it is the concentration needed to bring the measured effect to its halfway point. Regarding B1, in the assay with HIV-1 p24 protein [1], the Kd is < 0.00024 nM, the koff is < 1e-07 s⁻¹ and the kon stood at 408000 M⁻¹ s⁻¹. Besides, the EC50 with HIV-1 p24 protein [2] is 76.7 ng/mL.

B2: anti-HIV-1 antibody #D (antibody, V domains shown)
VH: QIQLQQSGPELVKPGASVKVSCKASGYAFTSYQLYWVKQSHGKSLEWIGYIDPYNGGTGYNQKFKGKATLTVDKSSSTAYMHLNSLTSEDSAVYYCASPRWLPAGDYWGQGTSVTVSS
VL: DVVMTQTPLSLPVSLGDQASISCRSSQSLVNSDGNTFLQWLLQKPGQSPKLLIYKVSNRFSGVPDRFSGSGSGTDFTLRISRVEAEDLGVYFCSQSTHVPWTFGGGTKLEIKR
notes: recombinant, expressed in CHO cells; also called mAb D; monoclonal antibody D
For B2, in the assay with HIV-1 p24 protein [1], the Kd is < 0.00052 nM, the koff is < 1e-07 s⁻¹ and the kon was determined as 194000 M⁻¹ s⁻¹. The molecule also gave an EC50 with HIV-1 p24 protein [2] of 8.41 ng/mL.

B3: anti-HIV-1 antibody #A (antibody, V domains shown)
VH: EVKLVESGGGLVKPGGSLQLSCVASGFTFSSYAMSWVRQTPEKGLEWVASITSGGNTYYPDSVKGRFTISRDNAGNILYLQMSSLRSEDTAMFYCAREVLSVPFAYWGQGTLVTVST
VL: DIQMTQTTSSLSASLGDRVTINCRASQDISNYLHWYQQKPDGTVKLLIYYTSRLHSGVPSRFSGSGSGTDYSLTISNLEKEDIATYFCQQGNSFPWTFGGGTKVEIKR
notes: recombinant, expressed in CHO cells; also called mAb A
As for B3, in the assay with HIV-1 p24 protein [1], the affinity, expressed as Kd, was 0.2 nM; the koff came out at 5.9e-05 s⁻¹; the kon amounted to 241000 M⁻¹ s⁻¹. For the same molecule, in the assay with HIV-1 p24 protein [2], it took 3.6 ng/mL to reach a half-maximal effect (EC50).
